# Measured values taken from the nanobody polyreactivity screen of Harvey et al. (2022).
# Test: yeast display, Sf9 membrane polyspecificity reagent, FACS + sequencing; frameworks hold sequencing errors
# Outline: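 Sorting gates, low and high (top ~1%), were placed on anti-HA fluorescence to track expression and on streptavidin fluorescence to track reagent binding. A clone's polyreactivity label is taken from the gate it came out of. The reagent was 10% biotinylated, detergent-solubilized Sf9 membrane, applied for 1 hour at 4 °C to galactose-induced yeast display cells.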
row,Sequence,polyreactivity (PSR sort gate)
1,QVQLVESGGGLVQAGGSLRLSCAASGITLTYYAMGWYRQAPGKERELVAAITWNGGHTYYADSVKGRFTISRDNAKNTVYLQMISQKPEDTAVYYCAAELWAYTWYWHSDYWGQGTQVTVSS,low polyreactivity
2,QVQLVESGGGLVQAGGSLRLSCAASGITLYAYVMGWYRQAPGKERELVAAIRSGGSTYYADSVKGRFTISRDNAKNTVYLQKNSLKPEDTAVYYCAAYYPLWGWGYDYWGQGTQVTVSS,high polyreactivity
3,QVQLVESGGGLVQAGGSLRLSCAASGITLYGNAMGWYRQAPGKEREFVAAISRSGDRTYYADSVKGRFTISRDNAKNTVYLPMYSLKPEDTAVYSCARDYRSYTGSYDTSYDYWGQGTQVTVSS,high polyreactivity
4,QVQLVESGGGLVQAGGSLRLSCAASGITLYGYTMGWYRQAPGKERELVAGISRGGSTYYADSVKGRFTISRDNAKNSVYLEMNSLKPDVTAVYYCAAAGWYRGDYWGQGTQVTVSS,high polyreactivity
5,QVQLVESGGGLVQAGGSLRLSCAASGITLYWYAMGWYRQAPGKERELVAAISRRGGTTYYADSVKGRFTISRDNAKNTVYLQMNSLKPEDTAVYYCAKAPDTQTSWSRQEGNYWGQGTQVTVSS,low polyreactivity
6,QVQLVESGGGLVQAGGSLRLSCAASGITSCFSAMGWYRPAPGQERELVAGISSGGSTNYADSVKGRFTISRDNAKNTVYLQMTSLKPEDTAVYYCPATFYNRYETRYYYWGQGTQVTVSS,high polyreactivity
7,QVQLVESGGGLVQAGGSLRLSCAASGITYEGYAMGWNRKAPGKERELVAAIRSSGTSTYYADSVKGRFTISRDNAKNSVYLQMNSLKPEDTAVYYCNRARSSSRYDYWGQGTQVTVSS,low polyreactivity
8,QVQLVESGGGLVQAGGSLRLSCAASGITYPRYTMGWYRQAPGKERQLVAAITRRSGSTNYADSVKGRITISRDNAKNTVYLQMNSLKPEDTAVYYCAAVVQVYDRGYHVIAKYYYWGQGTQVTVSS,high polyreactivity
9,QVQLVESGGGLVQAGGSLRLSCAASGITYYNAMGWYRQAAGKERELVARISWSSVSTYYADSVKGRFTISRDNAKNTVYLQMNSLKPEDTAVYYCAAEVRGSDYDYWGQGTQLTVSS,high polyreactivity
10,QVQLVESGGGLVQAGGSLRLSCAASGIYINAMGWYRQAPGKERELVAAISRGGSTYYADSVKGRFTISRDNAKNTVYLKMNSLKPEDTAVYYCAKLIGRWRLYHTFVKGDYWGQGTQVTVSS,high polyreactivity
11,QVQLVESGGGLVQAGGSLRLSCAASGIYPYYAMGWYRQAPGKERELVATISSADGPKYADSVKGRFTISRDNAKNTVYLQMNSLKPEDTAVYYCNAYVWSWHDYWGQGTQVTVSS,low polyreactivity
12,QVQLVESGGGLVQAGGSLRLSCAASGLICPLNAMGWYRQAPGKERELVAAITYSGGGTYYADSVKGRFTISRDNAKNTVDLQMNSLKAEDTAVYYCAADGSVSYYTYYYWGQGTHVTVSS,low polyreactivity
13,QVQLVESGGGLVQAGGSLRLSCAASGLIDSYYAMGWYRQAPGKERELVAVITSGGSTYYADSVKGRFTISRDNAKNTVYLQMNSLNPEDTAVYYCAARVRVSYNRYHGLYAVSRGDYWGQGTQVTVSS,high polyreactivity
14,QVQLVESGGGLVQAGGSLRLSCAASGLIFAEYAMGWYRQAPGKERELVARITSGGSTDYADSVKGRFTISRDNAKNTVYLQMNSLKPEDTAVYYCAARYYSQDKNASTASDFDYWGQGTQVTVSS,low polyreactivity
15,QVQLVESGGGLVQAGGSLRLSCAASGLIFAGYAMGWYRQAPGKERELVAAITWRGGRTYADSVKGRFTISRDNAKNTVYLQMNSLKPEDTAVYYCAVRRWGTSFVEDDYWGQGTQVTVSS,low polyreactivity
16,QVQLVESGGGLVQAGGSLRLSCAASGLIFAQYAMGWYRQAPGKEREFVAAISYSGGNTYYADSVKGRFTISRDNAKNTVYLQMNSLKPEDTAVYYCAADYYWYHYAGWVGQYGYWGQGTQVTVSS,low polyreactivity
17,QVQLVESGGGLVQAGGSLRLSCAASGLIFAYNTMGWYRQAPGKERELVAGITSSGSTYYADSVKGRFTISRDNEKNTVYLQMNSLKPEDTAVYYCAAEWDDGRSWYWYYLVGFEYWGQGTQVTVSS,high polyreactivity
